Reference: patent US20180303952A1 (CYTOMX THERAPEUTICS, published 2018)

B1: anti-human CD147 activatable antibody hu 3A11 Hc1/Lc1-217-3001 (antibody)
VH: EVQLVESGGGLVQPGGSLRLSCAASGFTFSNYWMDWVRQAPGKGLEWVGEIRLKSYNYATHYAASVKGRFTISRDDSKNSVYLQMNSLKTEDTAVYYCTAAGTDYWGQGTLVTVSS
VL: QSLFCSGFRCDQYASGGGSSGGSAVGLLAPPGGLSGRSDNHGGSDIQMTQSPSSLSASVGDRVTITCRASQSVRTDVGWYQQKPGKAPKLLIYYSSNRYTGVPSRFSGSGSGTDFTLTISSLQPEDFATYYCQQDYSSPYTFGQGTKLEIK
notes: also called hu 3A11-217-3001
B2: anti-human CD147 activatable antibody hu 3A11 Hc1/Lc1-419-3001 (antibody)
VH: EVQLVESGGGLVQPGGSLRLSCAASGFTFSNYWMDWVRQAPGKGLEWVGEIRLKSYNYATHYAASVKGRFTISRDDSKNSVYLQMNSLKTEDTAVYYCTAAGTDYWGQGTLVTVSS
VL: LHGPCHYDLKCKNNTGGGSSGGSAVGLLAPPGGLSGRSDNHGGSDIQMTQSPSSLSASVGDRVTITCRASQSVRTDVGWYQQKPGKAPKLLIYYSSNRYTGVPSRFSGSGSGTDFTLTISSLQPEDFATYYCQQDYSSPYTFGQGTKLEIK
notes: also called hu 3A11-419-3001
B3: anti-human CD147 activatable antibody hu 3A11 Hc1/Lc1-416-3001 (antibody)
VH: EVQLVESGGGLVQPGGSLRLSCAASGFTFSNYWMDWVRQAPGKGLEWVGEIRLKSYNYATHYAASVKGRFTISRDDSKNSVYLQMNSLKTEDTAVYYCTAAGTDYWGQGTLVTVSS
VL: WQRECSQKNICQYYIGGGSSGGSAVGLLAPPGGLSGRSDNHGGSDIQMTQSPSSLSASVGDRVTITCRASQSVRTDVGWYQQKPGKAPKLLIYYSSNRYTGVPSRFSGSGSGTDFTLTISSLQPEDFATYYCQQDYSSPYTFGQGTKLEIK
notes: also called hu 3A11-416-3001
B4: anti-human CD147 activatable antibody hu 3A11 Hc1/Lc1-216-3001 (antibody)
VH: EVQLVESGGGLVQPGGSLRLSCAASGFTFSNYWMDWVRQAPGKGLEWVGEIRLKSYNYATHYAASVKGRFTISRDDSKNSVYLQMNSLKTEDTAVYYCTAAGTDYWGQGTLVTVSS
VL: HGPCHYNFNSGCAQFGGGSSGGSAVGLLAPPGGLSGRSDNHGGSDIQMTQSPSSLSASVGDRVTITCRASQSVRTDVGWYQQKPGKAPKLLIYYSSNRYTGVPSRFSGSGSGTDFTLTISSLQPEDFATYYCQQDYSSPYTFGQGTKLEIK
notes: also called hu 3A11-216-3001
B5: anti-human CD147 activatable antibody hu 3A11 Hc1/Lc1-440-3001 (antibody)
VH: EVQLVESGGGLVQPGGSLRLSCAASGFTFSNYWMDWVRQAPGKGLEWVGEIRLKSYNYATHYAASVKGRFTISRDDSKNSVYLQMNSLKTEDTAVYYCTAAGTDYWGQGTLVTVSS
VL: TCLHLTRFNYLSCNKGGGSSGGSAVGLLAPPGGLSGRSDNHGGSDIQMTQSPSSLSASVGDRVTITCRASQSVRTDVGWYQQKPGKAPKLLIYYSSNRYTGVPSRFSGSGSGTDFTLTISSLQPEDFATYYCQQDYSSPYTFGQGTKLEIK
notes: also called hu 3A11-440-3001
B6: anti-human CD147 activatable antibody hu 3A11 Hc1/Lc1-443-3001 (antibody)
VH: EVQLVESGGGLVQPGGSLRLSCAASGFTFSNYWMDWVRQAPGKGLEWVGEIRLKSYNYATHYAASVKGRFTISRDDSKNSVYLQMNSLKTEDTAVYYCTAAGTDYWGQGTLVTVSS
VL: AHGPCHYNTECNSNKGGGSSGGSAVGLLAPPGGLSGRSDNHGGSDIQMTQSPSSLSASVGDRVTITCRASQSVRTDVGWYQQKPGKAPKLLIYYSSNRYTGVPSRFSGSGSGTDFTLTISSLQPEDFATYYCQQDYSSPYTFGQGTKLEIK
notes: also called hu 3A11-443-3001
B7: anti-human CD147 activatable antibody hu 3A11 Hc1/Lc1-253-3001 (antibody)
VH: EVQLVESGGGLVQPGGSLRLSCAASGFTFSNYWMDWVRQAPGKGLEWVGEIRLKSYNYATHYAASVKGRFTISRDDSKNSVYLQMNSLKTEDTAVYYCTAAGTDYWGQGTLVTVSS
VL: VHGPCHWSVECLSNVGGGSSGGSAVGLLAPPGGLSGRSDNHGGSDIQMTQSPSSLSASVGDRVTITCRASQSVRTDVGWYQQKPGKAPKLLIYYSSNRYTGVPSRFSGSGSGTDFTLTISSLQPEDFATYYCQQDYSSPYTFGQGTKLEIK
notes: also called hu 3A11-253-3001
B8: anti-human CD147 activatable antibody hu 3A11 Hc1/Lc1-221-3001 (antibody)
VH: EVQLVESGGGLVQPGGSLRLSCAASGFTFSNYWMDWVRQAPGKGLEWVGEIRLKSYNYATHYAASVKGRFTISRDDSKNSVYLQMNSLKTEDTAVYYCTAAGTDYWGQGTLVTVSS
VL: DHGPCHYVSCTTINHGGGSSGGSAVGLLAPPGGLSGRSDNHGGSDIQMTQSPSSLSASVGDRVTITCRASQSVRTDVGWYQQKPGKAPKLLIYYSSNRYTGVPSRFSGSGSGTDFTLTISSLQPEDFATYYCQQDYSSPYTFGQGTKLEIK
notes: also called hu 3A11-221-3001
B9: anti-human CD147 activatable antibody hu 3A11 Hc1/Lc1-428-3001 (antibody)
VH: EVQLVESGGGLVQPGGSLRLSCAASGFTFSNYWMDWVRQAPGKGLEWVGEIRLKSYNYATHYAASVKGRFTISRDDSKNSVYLQMNSLKTEDTAVYYCTAAGTDYWGQGTLVTVSS
VL: WHGPCHYTKCDDHTMGGGSSGGSAVGLLAPPGGLSGRSDNHGGSDIQMTQSPSSLSASVGDRVTITCRASQSVRTDVGWYQQKPGKAPKLLIYYSSNRYTGVPSRFSGSGSGTDFTLTISSLQPEDFATYYCQQDYSSPYTFGQGTKLEIK
notes: also called hu 3A11-428-3001
B10: anti-human CD147 activatable antibody hu 3A11 Hc1/Lc1-422-3001 (antibody)
VH: EVQLVESGGGLVQPGGSLRLSCAASGFTFSNYWMDWVRQAPGKGLEWVGEIRLKSYNYATHYAASVKGRFTISRDDSKNSVYLQMNSLKTEDTAVYYCTAAGTDYWGQGTLVTVSS
VL: LHGPCHYMNTCHNVKGGGSSGGSAVGLLAPPGGLSGRSDNHGGSDIQMTQSPSSLSASVGDRVTITCRASQSVRTDVGWYQQKPGKAPKLLIYYSSNRYTGVPSRFSGSGSGTDFTLTISSLQPEDFATYYCQQDYSSPYTFGQGTKLEIK
notes: also called hu 3A11-422-3001
B11: anti-human CD147 activatable antibody hu 3A11 Hc1/Lc1-445-3001 (antibody)
VH: EVQLVESGGGLVQPGGSLRLSCAASGFTFSNYWMDWVRQAPGKGLEWVGEIRLKSYNYATHYAASVKGRFTISRDDSKNSVYLQMNSLKTEDTAVYYCTAAGTDYWGQGTLVTVSS
VL: SHGPCHFDYQCINNTGGGSSGGSAVGLLAPPGGLSGRSDNHGGSDIQMTQSPSSLSASVGDRVTITCRASQSVRTDVGWYQQKPGKAPKLLIYYSSNRYTGVPSRFSGSGSGTDFTLTISSLQPEDFATYYCQQDYSSPYTFGQGTKLEIK
notes: also called hu 3A11-445-3001
B12: anti-human CD147 activatable antibody hu 3A11 Hc1/Lc1-215-3001 (antibody)
VH: EVQLVESGGGLVQPGGSLRLSCAASGFTFSNYWMDWVRQAPGKGLEWVGEIRLKSYNYATHYAASVKGRFTISRDDSKNSVYLQMNSLKTEDTAVYYCTAAGTDYWGQGTLVTVSS
VL: RYQSCHSYWCTEGNHGGGSSGGSAVGLLAPPGGLSGRSDNHGGSDIQMTQSPSSLSASVGDRVTITCRASQSVRTDVGWYQQKPGKAPKLLIYYSSNRYTGVPSRFSGSGSGTDFTLTISSLQPEDFATYYCQQDYSSPYTFGQGTKLEIK
notes: also called hu 3A11-215-3001
B13: anti-human CD147 activatable antibody hu 3A11 Hc1/Lc1-415-3001 (antibody)
VH: EVQLVESGGGLVQPGGSLRLSCAASGFTFSNYWMDWVRQAPGKGLEWVGEIRLKSYNYATHYAASVKGRFTISRDDSKNSVYLQMNSLKTEDTAVYYCTAAGTDYWGQGTLVTVSS
VL: LHGPCHFNNCNTLKLGGGSSGGSAVGLLAPPGGLSGRSDNHGGSDIQMTQSPSSLSASVGDRVTITCRASQSVRTDVGWYQQKPGKAPKLLIYYSSNRYTGVPSRFSGSGSGTDFTLTISSLQPEDFATYYCQQDYSSPYTFGQGTKLEIK
notes: also called hu 3A11-415-3001
B14: anti-human CD147 activatable antibody hu 3A11 Hc1/Lc1-414.1-3001 (antibody, V domains shown)
VH: EVQLVESGGGLVQPGGSLRLSCAASGFTFSNYWMDWVRQAPGKGLEWVGEIRLKSYNYATHYAASVKGRFTISRDDSKNSVYLQMNSLKTEDTAVYYCTAAGTDYWGQGTLVTVSS
VL: THGPCHFKPNCGGGSSGGSAVGLLAPPGGLSGRSDNHGGSDIQMTQSPSSLSASVGDRVTITCRASQSVRTDVGWYQQKPGKAPKLLIYYSSNRYTGVPSRFSGSGSGTDFTLTISSLQPEDFATYYCQQDYSSPYTFGQGTKLEIK
notes: also called hu 3A11-414.1-3001
B15: anti-human CD147 activatable antibody hu 3A11 Hc1/Lc1-414.3-3001 (antibody)
VH: EVQLVESGGGLVQPGGSLRLSCAASGFTFSNYWMDWVRQAPGKGLEWVGEIRLKSYNYATHYAASVKGRFTISRDDSKNSVYLQMNSLKTEDTAVYYCTAAGTDYWGQGTLVTVSS
VL: THGPCHFKPNCAYPTGGGSSGGSAVGLLAPPGGLSGRSDNHGGSDIQMTQSPSSLSASVGDRVTITCRASQSVRTDVGWYQQKPGKAPKLLIYYSSNRYTGVPSRFSGSGSGTDFTLTISSLQPEDFATYYCQQDYSSPYTFGQGTKLEIK
notes: also called hu 3A11-414.3-3001
B16: anti-human CD147 activatable antibody hu 3A11 Hc1/Lc1-414.2-3001 (antibody)
VH: EVQLVESGGGLVQPGGSLRLSCAASGFTFSNYWMDWVRQAPGKGLEWVGEIRLKSYNYATHYAASVKGRFTISRDDSKNSVYLQMNSLKTEDTAVYYCTAAGTDYWGQGTLVTVSS
VL: THGPCHFKPQCSYPTGGGSSGGSAVGLLAPPGGLSGRSDNHGGSDIQMTQSPSSLSASVGDRVTITCRASQSVRTDVGWYQQKPGKAPKLLIYYSSNRYTGVPSRFSGSGSGTDFTLTISSLQPEDFATYYCQQDYSSPYTFGQGTKLEIK
notes: also called hu 3A11-414.2-3001
B17: anti-human CD147 activatable antibody hu 3A11 Hc1/Lc1-419.1-3001 (antibody)
VH: EVQLVESGGGLVQPGGSLRLSCAASGFTFSNYWMDWVRQAPGKGLEWVGEIRLKSYNYATHYAASVKGRFTISRDDSKNSVYLQMNSLKTEDTAVYYCTAAGTDYWGQGTLVTVSS
VL: LHGPCHYDLKCKQNTGGGSSGGSAVGLLAPPGGLSGRSDNHGGSDIQMTQSPSSLSASVGDRVTITCRASQSVRTDVGWYQQKPGKAPKLLIYYSSNRYTGVPSRFSGSGSGTDFTLTISSLQPEDFATYYCQQDYSSPYTFGQGTKLEIK
notes: also called hu 3A11-419.1-3001

What follows are binders tested against T1, human CD147 protein (adsorbed to ELISA plates) (human, UniProt P35613-2 22-205, limits assumed) (assay: ELISA, human CD147 protein adsorbed to plate, intact activatable antibody; apparent KD).
T1 construct: also called human CD147 polypeptide; Basigin
T1 sequence (looked up): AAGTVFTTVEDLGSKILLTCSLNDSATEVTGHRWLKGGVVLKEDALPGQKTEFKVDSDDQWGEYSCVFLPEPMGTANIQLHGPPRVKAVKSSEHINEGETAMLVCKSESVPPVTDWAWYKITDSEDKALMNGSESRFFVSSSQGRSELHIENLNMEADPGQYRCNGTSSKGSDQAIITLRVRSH
Procedure: Humanized anti-human CD147 antibodies of the present disclosure hu 3A11 Hc1/Lc1 (VL of SEQ ID NO: 5 and VH of SEQ ID NO: 1) were used as a control.
(§1) Using a standard ELISA protocol, human CD147 protein was absorbed to ELISA plates and subsequently incubated with the indicated concentration of antibody of the present disclosure. Bound humanized activatable antibody of the present disclosure was detected with anti-human Fab-peroxidase secondary antibody and Ultra TMB detection (Thermo Fisher Scientific).
B1 gave a Kd of 1.61 nM. With B2 the Kd was 9.43 nM. B3 showed a Kd of 0.49 nM. B4 gave a Kd of 0.89 nM. B5 was tested, and the Kd was 1.23 nM. With B6 the Kd was 7.4 nM. B7 showed a Kd of 0.87 nM. B8 was tested, and the Kd was 2.5 nM. In the case of B9, the Kd is reported as 7.63 nM. Work on B10 yielded a Kd of 1.55 nM. B11 gave a Kd of 7.86 nM. B12 was tested, and the Kd was 5.53 nM. For B13, the Kd was 4.72 nM.

Target: T1, human CD147 protein (adsorbed to ELISA …)
Test: as above
Remark: another data set of the same source
Procedure: as §1, with “For the exemplary assay depicted in FIGS. 7A-7C,” for “Using a”, “protocol was used, in which” for “protocol,”
Work on B14 yielded a Kd of 13.8 nM. With B15 the Kd was 20.2 nM. For B16, the Kd was 15.7 nM. Binder B17 has a Kd of 44 nM.
